Results: publication PMC1326212, “Dimerization and enzymatic activity of fungal 17β-hydroxysteroid dehydrogenase from the short-chain dehydrogenase/reductase superfamily” (BMC Biochemistry, 2005)

Columns and labels:
[1] = target: 17β-HSD type 1 (Homo sapiens) (UniProt P14061); conditions: cited from earlier work
[2] = system: NC(=O)C1=CN([C@@H]2O[C@H](COP(=O)(O)OP(=O)(O)OC[C@H]3O[C@@H](n4cnc5c(N)ncnc54)[C@H](OP(=O)(O)O)[C@@H]3O)[C@@H](O)[C@H]2O)C=CC1; assay: purified protein; type: biochemical, Curvularia lunata; conditions: reduction of 4-estrene-3,17-dione (100 μM), 100 mM phosphate pH 8.0, 25°C, 1% DMF, varied: cofactor
[3] = system: NC(=O)c1ccc[n+]([C@@H]2O[C@H](COP(=O)(O)OP(=O)(O)OC[C@H]3O[C@@H](n4cnc5c(N)ncnc54)[C@H](OP(=O)(O)O)[C@@H]3O)[C@@H](O)[C@H]2O)c1; assay: purified protein; type: biochemical, Curvularia lunata; conditions: oxidation of 4-estrene-17β-ol-3-one (100 μM), 100 mM phosphate pH 8.0, 25°C, 1% DMF, varied: cofactor
[4] = target: 17β-HSDcl-His111Ala (Cochliobolus lunatus); assay: SEC; gel filtration on TSK G4000 SWxl, 100 mM phosphate buffer with 150 mM NaCl, pH 7.0; about 40 μg protein in 100 μl injected, 1.0 ml/min; mass by calibration standards
17β-HSDcl [5] = target: T1, 17β-HSDcl (Curvularia lunata, UniProt O93874, H111A); assay: intrinsic fluorescence quenching titration; type: binding
T1 construct: gene 17HSDcl; GST fusion (pGex-17β-HSDcl) from E. coli JM107, GST cut off with thrombin; 28 kDa subunit; wild type and H111A homodimeric, H111L and R129D monomeric
Description: (§1) intrinsic fluorescence quenching titration on 17β-HSDcl

17β-HSDcl [6] = target: T2, 17β-HSDcl (Curvularia lunata, UniProt O93874, H111L); assay: intrinsic fluorescence quenching titration; type: binding
T2 construct: gene 17HSDcl; GST fusion (pGex-17β-HSDcl) from E. coli JM107, GST cut off with thrombin; 28 kDa subunit; wild type and H111A homodimeric, H111L and R129D monomeric
Description: as §1

17β-HSDcl [7] = target: T3, 17β-HSDcl (Curvularia lunata, UniProt O93874, R129D); assay: intrinsic fluorescence quenching titration; type: binding
T3 construct: gene 17HSDcl; GST fusion (pGex-17β-HSDcl) from E. coli JM107, GST cut off with thrombin; 28 kDa subunit; wild type and H111A homodimeric, H111L and R129D monomeric
Description: as §1

[8] = target: the molecule itself; assay: SEC; gel filtration on TSK G4000 SWxl, 100 mM phosphate buffer with 150 mM NaCl, pH 7.0; about 40 μg protein in 100 μl injected, 1.0 ml/min; mass by calibration standards

17β-HSD type 1 (from UniProt P14061)
Kd [1]: < 5 pM

17β-HSDcl (Curvularia lunata; H111A)
Km [2]: 50.6 µM | kcat [2]: 2.4 s⁻¹ | kcat/Km [2]: 47000 M⁻¹ s⁻¹ | Km [3]: 4.6 µM | kcat [3]: 0.9 s⁻¹ | kcat/Km [3]: 190000 M⁻¹ s⁻¹

17β-HSDcl-His111Ala (enzyme)
stoichiometry N [4]: 2

NC(=O)c1ccc[n+]([C@@H]2O[C@H](COP(=O)(O)OP(=O)(O)OC[C@H]3O[C@@H](n4cnc5c(N)ncnc54)[C@H](OP(=O)(O)O)[C@@H]3O)[C@@H](O)[C@H]2O)c1 [NADP^+]
Kd (17β-HSDcl [5]): 5.8 µM | Kd (17β-HSDcl [6]): 19.9 µM | Kd (17β-HSDcl [7]): 12.8 µM

B1: 17β-hydroxysteroid dehydrogenase from Cochliobolus lunatus, wild type (enzyme, UniProt O93874 1-270, looked up)
chain: MPHVENASETYIPGRLDGKVALVTGSGRGIGAAVAVHLGRLGAKVVVNYANSTKDAEKVVSEIKALGSDAIAIKADIRQVPEIVKLFDQAVAHFGHLDIAVSNSGVVSFGHLKDVTEEEFDRVFSLNTRGQFFVAREAYRHLTEGGRIVLTSSNTSKDFSVPKHSLYSGSKGAVDSFVRIFSKDCGDKKITVNAVAPGGTVTDMFHEVSHHYIPNGTSYTAEQRQQMAAHASPLHRNGWPQDVANVVGFLVSKEGEWVNGKVLTLDGGAA
notes: expected molecular mass 28 kDa; also called 17β-HSDcl; fungal 17β-HSD; source: E. coli JM107, GST fusion, purified (Glutathione Sepharose, thrombin cleavage)
stoichiometry N [8]: 2
